Data from PMC7083937, “The ribosome-associated complex RAC serves in a relay that directs nascent chains to Ssb” (Nature Communications, 2020).
Where a chain is given by its changes, count along the chain named. Names may count otherwise. “Also recorded” adds a separate entry of the source.

How the values were obtained:
ribosomes = experiment: ribosome-binding assay; parameters: species or system Saccharomyces cerevisiae
Description: Yeast strains were grown to early log phase on YPD, prior to harvest cycloheximide was added to a final concentration of 100 µg/ml, and subsequently cells were collected via centrifugation at 5000 g. Cell pellets were resuspended in ribosome-binding buffer (20 mM Hepes/KOH pH 7.4, 2 mM Mg(OAc)2, 120 mM KOAc, 100 µg/ml cycloheximide, 2 mM DTT, 1 mM PMSF, protease inhibitor mix) and total cell extracts were prepared by the glass beads method. After a clearing spin at 20.000 g, each 60 µl of the total glass beads extract (A260 between 80 and 100 mAU) was loaded onto a 90 µl sucrose cushion (25% sucrose, 20 mM Hepes/KOH pH 7.4, 120 mM KOAc, 2 mM Mg(OAc)2, 2 mM DTT, 1 mM PMSF, protease inhibitor mix). After centrifugation at 400.000 g at 4 °C for 25 min the cytosolic supernatant was collected and the ribosomal pellet was resuspended in 300 µl ribosome-binding buffer. Aliquots of the total cell extract, cytosolic supernatant, and resuspended ribosomal pellets were precipitated by addition of TCA (trichloroacetic acid) to a final concentration of 5%. TCA pellets were dissolved in SDS-sample buffer and were analyzed on 10% Tris-Tricine gels followed by immunoblotting.

nascent Pgk1-100 = experiment: crosslinking to ribosome-bound nascent chain; type: binding, Saccharomyces cerevisiae; conditions: BS3
From the text: (§1) DNA templates for transcription reactions were generated by PCR using pSPUTK-Pgk1[20] as a template. Reverse primers were designed such, that PCR products encoded different length PGK1 sequences, which all lacked a stop codon. The length of the resulting translation products, which remain ribosome-bound, is indicated in Results and Figure Legends. Transcripts were generated using SP6 polymerase (Thermo Fischer Scientific) as previously described. RNCs were generated via translation reactions primed with the stop codon-less transcripts at 20 °C in the presence of [^35S]-methionine (Hartmann-Analytic) for 80 min[20],[54]. Translation reactions were stopped by the addition of 50 µg/ml cycloheximide final concentration and subsequently RNCs were isolated via centrifugation at 400.000 g for 20 min in a TLA-100 or TLA-100.2 rotor (Beckman Coulter)[20].
(§2) Chemical crosslinking of ribosome-bound nascent chains to Ssb, Zuo1, or Ssz1 was analyzed essentially as described. In brief, resuspended RNCs were incubated in the presence of 400 µM BS^3 (bis-(sulfosuccinimidyl)-suberate, spacer length 1.14 nm, Thermo Scientific) for 20 min on ice and crosslinking was then quenched by the addition of TRIS base (tris(hydroxymethyl)aminomethane) to a final concentration of 50 mM. Crosslinked protein samples were precipitated by the addition of TCA (final concentration 5%), pellets were collected by centrifugation and were dissolved in dissociation buffer (200 mM TRIS/HCl pH 7.5, 4% SDS; 10 mM EDTA, 100 µg/ml BSA, protease inhibitor mix, 1 mM PMSF). Totals shown in Figs. 1,3 and Supplementary Fig. 1 before (total) and after BS^3 crosslinking (total + BS^3) represent 5% of the dissolved material employed for immunoprecipitation reactions. The resulting denatured protein samples were used to identify crosslink products between Ssb, Zuo1, or Ssz1 and nascent chains via affinity purification under denaturing conditions. To that end, protein A sepharose beads (GE Healthcare) were pre-coated with antibodies directed against Ssb, Zuo1, or Ssz1 and subsequently the denatured crosslinked material was allowed to bind to the beads resuspended in immunoprecipitation buffer (10 mM TRIS/HCl pH 7.5, 150 mM NaCl, 5 mM EDTA, 1% Triton X-100, protease inhibitor mix, 0.5 mM PMSF)[20]. Crosslink products bound to protein A sepharose beads were released by addition of SDS-sample buffer at 95 °C for 10 min. Samples were analyzed on Tris-Tricine gels[56] followed by autoradiography. Loading was normalized according to the signal of [^35S]-labelled nascent Pgk1 in the total prior to crosslinking. Relative crosslinking efficiencies between nascent Pgk1-100 and Zuo1 or Ssz1, respectively were determined as follows. For each biological replicate, band intensities of non-crosslinked nascent Pgk1-100 and of Pgk1-100 crosslink products (XL-Zuo1 or XL-Ssz1) was determined on a single autoradiograph for wild type RAC and the different mutant variants of RAC. The crosslinking efficiency (XL-Zuo1/Pgk1-100 or XL-Ssz1/Pgk1-100) of each sample was calculated and subsequently the ratio of XL-Zuo1/Pgk1-100 or XL-Ssz1/Pgk1-100 in the presence of wild type RAC was set to 1 in order to normalize the biological replicates (see Fig. 3c,d). The original data are provided as a Source Data file.
For complementation experiments translation reactions were performed in either ∆ssb1∆ssb2 or ∆ssb1∆ssb2∆zuo1∆ssz1 translation extract as indicated. Complementation with purified Ssb1 was performed by adding His6-tagged ScSsb1 at a final concentration of 2 µM to the translation reaction prior to the addition of mRNA. Ribosome-free cytosolic extract of various mutant yeast strains for complementation experiments as indicated in Results and Figure Legends was generated as follows. The A260 of a total cell extract prepared by the glass beads method (see above) was determined, and the total cell extract was subsequently adjusted to a final concentration of 800 mM KOAc. […]

nascent Pgk1-45 = experiment: crosslinking to ribosome-bound nascent chain; type: binding, Saccharomyces cerevisiae; conditions: wild type translation extract; BS3
From the text: as §1, §2

nascent Pgk1-40 = experiment: crosslinking to ribosome-bound nascent chain; type: binding, Saccharomyces cerevisiae; conditions: wild type translation extract; BS3
From the text: as §1, §2

[1] = test system: nascent Pgk1 chains of 50–150 residues; experiment: crosslinking to ribosome-bound nascent chain; type: binding, Saccharomyces cerevisiae; conditions: Δssb1Δssb2 translation extract (Ssb absent); BS3
From the text: as §1, §2

nascent Pgk1-50 = experiment: crosslinking to ribosome-bound nascent chain; type: binding, Saccharomyces cerevisiae; conditions: wild type translation extract; BS3
From the text: as §1, §2

[2] = nanoDSF thermal stability of RAC core complexes; type: physicochemical, Saccharomyces cerevisiae; conditions: 20 mM Hepes/KOH pH 7.5, 200 mM KCl, 5 mM MgCl2, 1 mM DTT, 20 to 90 °C at 1.5 °C/min, 330/350 nm, no peptide, three measurements shown
Description: The melting temperature of ScSsz1-Zuo1N, ScSsz1-Zuo1NΔLP or ScSsz1mut-Zuo1NΔLP with or without the LP-peptide (Peptide Specialty Laboratories GmbH, Heidelberg) were determined using the Prometheus NT.48 nanoDSF system using nano-DSF grade capillaries (NanoTemper Technologies GmbH). The measurements were performed in 20 mM Hepes/KOH pH 7.5, 200 mM KCl, 5 mM MgCl2, 1 mM DTT. The LP-peptide, which was dissolved in DMSO, was pre-diluted in the above buffer such that the final DMSO concentration in the experiment was below 0.5%. DMSO diluted in the same way was added to the negative control. Intrinsic protein fluorescence was measured continuously at 330 nm and 350 nm with a temperature gradient ranging from 20 to 90 °C at a rate of 1.5 °C/min. […]
(a-b) NanoDSF analysis of Ssz1-Zuo1N (blue) and Ssz1-Zuo1NDLP (orange) in a and Ssz1-Zuo1NDLP wit hout t he LP-pept ide (orange) or wit h t he LP-pept ide (blue) in b. Three measurements are shown.
Source data are provided as a Source Dat a f ile.
(c) Residues (L439S/K440P/I448F/G495K) mutated in Ssz1mut to block substrate binding to Ssz1-SBDb (cyan) are in stick representation (upper panel). Zuo1N is shown in orange a nd the LP-motif in yellow. Multiple sequence alignment of Hsp70 homologs (lower panel) wit h the mutations highlighted in yellow. The alignment is colored as in Fig. 2a. […]

Molecule: Ssb-ΔC23
- ribosome association (ribosomes; Ssb-ΔC23 translation extract, supernatant/pellet, immunoblot): not ribosome-associated but fully recovered in the supernatant fraction
- ribosome binding (ribosomes; total cell extract, supernatant/pellet, immunoblot): fully recovered in the cytosol
- crosslink to nascent Pgk1-100 (nascent Pgk1-100; Ssb-ΔC23 translation extract): no crosslink between Ssb-ΔC23 and Pgk1-100 was detected

B1: Zuo1: J-domain protein (Hsp40), RAC subunit (protein)
chain: MFSLPTLTSDITVEVNSSATKTPFVRRPVEPVGKFFLQHAQRTLRNHTWSEFERIEAEKNVKTVDESNVDPDELLFDTELADEDLLTHDARDWKTADLYAAMGLSKLRFRATESQIIKAHRKQVVKYHPDKQSAAGGSLDQDGFFKIIQKAFETLTDSNKRAQYDSCDFVADVPPPKKGTDYDFYEAWGPVFEAEARFSKKTPIPSLGNKDSSKKEVEQFYAFWHRFDSWRTFEFLDEDVPDDSSNRDHKRYIERKNKAARDKKKTADNARLVKLVERAVSEDPRIKMFKEEEKKEKERRKWEREAGARAEAEAKAKAEAEAKAKAESEAKANASAKADKKKAKEAAKAAKKKNKRAIRNSAKEADYFGDADKATTIDEQVGLIVDSLNDEELVSTADKIKANAAGAKEVLKESAKTIVDSGKLPSSLLSYFV
- crosslinking of Zuo1 to nascent Pgk1 when RAC or Ssz1 is absent from ribosomes (nascent Pgk1-100; Fig. 1e set-up): strongly enhanced
- contact of Zuo1 with nascent Pgk1-100 when Ssz1 was absent or not in a stable complex (nascent Pgk1-100; Δzuo1Δssz1Δssb1Δssb2 RNCs complemented with ribosome-free extracts): remained in contact with Zuo1
- crosslink to nascent Pgk1-45 (nascent Pgk1-45): formed crosslinks with these short nascent chains
- crosslink to nascent Pgk1-40 (nascent Pgk1-40): most efficiently crosslinked to Pgk1-40
- crosslink to nascent chains of 50–150 residues [1]: efficient crosslinks
- crosslink to nascent Pgk1-50 (nascent Pgk1-50): below the detection limit

B2: Ssz1: Hsp70 homolog, RAC subunit (protein)
chain: MSSPVIGITFGNTSSSIAYINPKNDVDVIANPDGERAIPSALSYVGEDEYHGGQALQQLIRNPKNTIINFRDFIGLPFDKCDVSKCANGAPAVEVDGKVGFVISRGEGKEEKLTVDEVVSRHLNRLKLAAEDYIGSAVKEAVLTVPTNFSEEQKTALKASAAKIGLQIVQFINEPSAALLAHAEQFPFEKDVNVVVADFGGIRSDAAVIAVRNGIFTILATAHDLSLGGDNLDTELVEYFASEFQKKYQANPRKNARSLAKLKANSSITKKTLSNATSATISIDSLADGFDYHASINRMRYELVANKVFAQFSSFVDSVIAKAELDPLDIDAVLLTGGVSFTPKLTTNLEYTLPESVEILGPQNKNASNNPNELAASGAALQARLISDYDADELAEALQPVIVNTPHLKKPIGLIGAKGEFHPVLLAETSFPVQKKLTLKQAKGDFLIGVYEGDHHIEEKTLEPIPKEENAEEDDESEWSDDEPEVVREKLYTLGTKLMELGIKNANGVEIIFNINKDGALRVTARDLKTGNAVKGEL
modifications: left off: His6-SUMO, N-terminal, state not stated
notes: Hsp70 homolog, RAC subunit
- localization of Ssz1 in RAC-∆N49 (ribosomes; total cell extract): localized to the cytosol
- localization of Ssz1 in wild type, RAC-∆N8, or RAC-∆N16 (ribosomes; total cell extract): ribosome-bound
- crosslink to nascent Pgk1-45 (nascent Pgk1-45): most efficiently crosslinked to Pgk1-45
- crosslink to nascent Pgk1-40 (nascent Pgk1-40): formed crosslinks with these short nascent chains
- crosslink to nascent chains of 50–150 residues [1]: efficient crosslinks
- crosslink to nascent Pgk1-50 (nascent Pgk1-50): below the detection limit

B3: Ssz1mut: Ssz1 with L439S/K440P/I448F/G495K in the peptide binding groove (protein)
chain: B2 chain with L439S, K440P, I448F, G495K
- contact of nascent Pgk1-100 with Ssz1mut compared to Ssz1 (nascent Pgk1-100; RACmut-ΔN8 (Zuo1-ΔN8/Ssz1mut) vs RAC-ΔN8): impaired; also recorded: strongly reduced

B4: RAC core complex: ScSsz1 with ScZuo1N (residues 1-50) (protein)
chain 1: B2 chain
chain 2: MFSLPTLTSDITVEVNSSATKTPFVRRPVEPVGKFFLQHAQRTLRNHTWS
modifications: left off: His6-SUMO, N-terminal, state not stated | His6-MBP, N-terminal, cleaved
- melting temperature (thermal stability of RAC core complex) [2]: 52.9 °C
